According to patent US20180080926A1:
Where two headings read alike, the source gives them in different places.

Tests used:
[1] = molecular target: mitochondrial mitofusins; assay: cell-based or functional assay
[2] = molecular target: mitochondrial mitofusins; assay: cell-based or functional assay; remark: listed apart in the source

## TAT-367-384Gly (peptide)
[1]
  EC50 of mitochondrial elongation (enhanced fusion), mitochondrial aspect ratio in MEFs: 0.28 µM

## TAT-398-418Gly (peptide)
[1]
  EC50 of mitochondrial shortening (suppressed fusion), mitochondrial aspect ratio in MEFs: 0.25 µM

## GELLAQDYKLRGGYGRKKRRQRRR [TetherX-C fusion construct]
[2]
  EC50 of mitochondrial shortening (suppressed fusion), mitochondrial aspect ratio in MEFs: 0.171 µM

## GIMDSLHMAARGGYGRKKRRQRRR [GoFuse-C fusion construct]
[2]
  EC50 of mitochondrial elongation (enhanced fusion), mitochondrial aspect ratio in MEFs: 0.389 µM
